Literature values in paper PMC9412859 (World Journal of Diabetes, 2022).

Conditions: rats, oral

Substance	time of maximum plasma concentration (enteric-coated capsule containing pH responsive NPs) [h]	plasma exenatide level versus subcutaneous exenatide solution (functionalised NPs)
Exendin-4: GLP1-RA, here released from enteric-coated capsule containing pH responsive NPs	5	–
exenatide: GLP1-RA, here delivered orally in functionalised nanoparticles	–	not significantly different
